This note sets out measurements from publication doi:10.1101/2023.12.11.571162 (2023).

Among the targets are anti-LHFPL5; 39G7; 8D1.
Common to all, as to assay: BLI
(In BLI a coated tip is dipped into the sample, and binding shifts an interference pattern.)

39G7, sequence (Q99PJ1 27-1943): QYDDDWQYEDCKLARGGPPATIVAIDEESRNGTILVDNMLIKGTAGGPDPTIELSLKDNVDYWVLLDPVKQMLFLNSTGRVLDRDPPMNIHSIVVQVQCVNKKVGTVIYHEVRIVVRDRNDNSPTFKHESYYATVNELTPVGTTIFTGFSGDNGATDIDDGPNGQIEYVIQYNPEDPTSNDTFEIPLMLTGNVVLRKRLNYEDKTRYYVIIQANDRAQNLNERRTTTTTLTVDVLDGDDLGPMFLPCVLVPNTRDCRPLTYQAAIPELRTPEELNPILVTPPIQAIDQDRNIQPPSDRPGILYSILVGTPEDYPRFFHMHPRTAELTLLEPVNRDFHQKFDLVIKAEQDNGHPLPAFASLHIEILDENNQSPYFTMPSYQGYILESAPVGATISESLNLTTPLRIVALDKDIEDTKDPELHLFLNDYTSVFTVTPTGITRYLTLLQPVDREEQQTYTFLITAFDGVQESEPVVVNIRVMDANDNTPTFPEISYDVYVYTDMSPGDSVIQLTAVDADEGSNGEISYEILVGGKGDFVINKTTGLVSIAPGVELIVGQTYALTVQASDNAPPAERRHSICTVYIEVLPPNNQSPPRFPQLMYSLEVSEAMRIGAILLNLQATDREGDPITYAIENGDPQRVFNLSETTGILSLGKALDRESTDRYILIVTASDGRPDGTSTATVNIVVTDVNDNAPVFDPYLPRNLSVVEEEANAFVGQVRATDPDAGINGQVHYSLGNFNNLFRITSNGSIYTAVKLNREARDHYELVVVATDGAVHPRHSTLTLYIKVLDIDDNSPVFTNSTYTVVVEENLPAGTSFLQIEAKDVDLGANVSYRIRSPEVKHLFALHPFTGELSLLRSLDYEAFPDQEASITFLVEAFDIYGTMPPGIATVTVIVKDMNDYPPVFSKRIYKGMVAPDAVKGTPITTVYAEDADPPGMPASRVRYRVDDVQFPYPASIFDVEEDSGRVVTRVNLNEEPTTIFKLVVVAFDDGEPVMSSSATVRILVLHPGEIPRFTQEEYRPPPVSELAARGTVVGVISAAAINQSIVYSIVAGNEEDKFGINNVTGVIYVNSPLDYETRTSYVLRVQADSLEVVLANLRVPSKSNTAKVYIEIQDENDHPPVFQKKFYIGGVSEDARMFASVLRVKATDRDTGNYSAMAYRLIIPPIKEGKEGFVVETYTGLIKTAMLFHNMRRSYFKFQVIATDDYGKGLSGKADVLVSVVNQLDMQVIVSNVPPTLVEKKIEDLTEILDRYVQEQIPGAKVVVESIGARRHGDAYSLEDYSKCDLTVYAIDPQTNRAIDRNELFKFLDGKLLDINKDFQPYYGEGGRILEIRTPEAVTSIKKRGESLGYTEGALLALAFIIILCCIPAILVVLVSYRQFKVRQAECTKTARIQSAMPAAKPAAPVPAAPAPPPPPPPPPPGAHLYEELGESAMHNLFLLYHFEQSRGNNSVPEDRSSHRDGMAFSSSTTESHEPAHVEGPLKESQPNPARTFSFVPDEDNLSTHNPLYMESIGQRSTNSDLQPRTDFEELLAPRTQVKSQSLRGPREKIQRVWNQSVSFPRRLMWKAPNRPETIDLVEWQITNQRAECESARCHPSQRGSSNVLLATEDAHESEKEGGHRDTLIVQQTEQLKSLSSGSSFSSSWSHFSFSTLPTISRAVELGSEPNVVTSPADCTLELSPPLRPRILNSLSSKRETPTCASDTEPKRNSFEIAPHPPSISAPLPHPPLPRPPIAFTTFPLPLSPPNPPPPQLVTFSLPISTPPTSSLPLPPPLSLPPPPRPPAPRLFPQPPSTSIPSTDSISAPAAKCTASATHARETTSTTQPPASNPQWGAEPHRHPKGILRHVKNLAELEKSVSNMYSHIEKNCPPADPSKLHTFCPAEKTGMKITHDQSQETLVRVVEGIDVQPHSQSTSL
8D1, sequence (Q99PJ1 27-1943): as above

B1: recombinant lipoma HMGIC fusion partner-like protein 5 (LHFPL5), Mus musculus, strep-tagged construct co-expressed with PCDH15 (natural protein)
chain: MVKLLPAQEAAKIYHTNYVRNSRAVGVMWGTLTICFSVLVMALFIQPYWIGDSVSTPQAGYFGLFSYCVGNVLSSELICKGGPLDFSSIPSRAFKTAMFFVALAMFLIIGSIICFSLFFVCNTATVYKICAWMQLAAATGLMIGCLVYPDGWDSSEVRRMCGEQTGKYTLGHCTIRWAFMLAILSIGDALILSFLAFVLGYRQDKLLPDDYKADGNEEV
For orientation: Kd means the constant that tells how readily two partners part at equilibrium. A word on the koff: it is the first-order rate constant of dissociation. Read a low koff as slow dissociation. In the assay with anti-LHFPL5, B1 had a Kd of 1000 pM and a koff of 5e-05 s⁻¹.

B2: recombinant protocadherin-15 (PCDH15), Mus musculus, His-tagged construct co-expressed with LHFPL5 (natural protein)
chain: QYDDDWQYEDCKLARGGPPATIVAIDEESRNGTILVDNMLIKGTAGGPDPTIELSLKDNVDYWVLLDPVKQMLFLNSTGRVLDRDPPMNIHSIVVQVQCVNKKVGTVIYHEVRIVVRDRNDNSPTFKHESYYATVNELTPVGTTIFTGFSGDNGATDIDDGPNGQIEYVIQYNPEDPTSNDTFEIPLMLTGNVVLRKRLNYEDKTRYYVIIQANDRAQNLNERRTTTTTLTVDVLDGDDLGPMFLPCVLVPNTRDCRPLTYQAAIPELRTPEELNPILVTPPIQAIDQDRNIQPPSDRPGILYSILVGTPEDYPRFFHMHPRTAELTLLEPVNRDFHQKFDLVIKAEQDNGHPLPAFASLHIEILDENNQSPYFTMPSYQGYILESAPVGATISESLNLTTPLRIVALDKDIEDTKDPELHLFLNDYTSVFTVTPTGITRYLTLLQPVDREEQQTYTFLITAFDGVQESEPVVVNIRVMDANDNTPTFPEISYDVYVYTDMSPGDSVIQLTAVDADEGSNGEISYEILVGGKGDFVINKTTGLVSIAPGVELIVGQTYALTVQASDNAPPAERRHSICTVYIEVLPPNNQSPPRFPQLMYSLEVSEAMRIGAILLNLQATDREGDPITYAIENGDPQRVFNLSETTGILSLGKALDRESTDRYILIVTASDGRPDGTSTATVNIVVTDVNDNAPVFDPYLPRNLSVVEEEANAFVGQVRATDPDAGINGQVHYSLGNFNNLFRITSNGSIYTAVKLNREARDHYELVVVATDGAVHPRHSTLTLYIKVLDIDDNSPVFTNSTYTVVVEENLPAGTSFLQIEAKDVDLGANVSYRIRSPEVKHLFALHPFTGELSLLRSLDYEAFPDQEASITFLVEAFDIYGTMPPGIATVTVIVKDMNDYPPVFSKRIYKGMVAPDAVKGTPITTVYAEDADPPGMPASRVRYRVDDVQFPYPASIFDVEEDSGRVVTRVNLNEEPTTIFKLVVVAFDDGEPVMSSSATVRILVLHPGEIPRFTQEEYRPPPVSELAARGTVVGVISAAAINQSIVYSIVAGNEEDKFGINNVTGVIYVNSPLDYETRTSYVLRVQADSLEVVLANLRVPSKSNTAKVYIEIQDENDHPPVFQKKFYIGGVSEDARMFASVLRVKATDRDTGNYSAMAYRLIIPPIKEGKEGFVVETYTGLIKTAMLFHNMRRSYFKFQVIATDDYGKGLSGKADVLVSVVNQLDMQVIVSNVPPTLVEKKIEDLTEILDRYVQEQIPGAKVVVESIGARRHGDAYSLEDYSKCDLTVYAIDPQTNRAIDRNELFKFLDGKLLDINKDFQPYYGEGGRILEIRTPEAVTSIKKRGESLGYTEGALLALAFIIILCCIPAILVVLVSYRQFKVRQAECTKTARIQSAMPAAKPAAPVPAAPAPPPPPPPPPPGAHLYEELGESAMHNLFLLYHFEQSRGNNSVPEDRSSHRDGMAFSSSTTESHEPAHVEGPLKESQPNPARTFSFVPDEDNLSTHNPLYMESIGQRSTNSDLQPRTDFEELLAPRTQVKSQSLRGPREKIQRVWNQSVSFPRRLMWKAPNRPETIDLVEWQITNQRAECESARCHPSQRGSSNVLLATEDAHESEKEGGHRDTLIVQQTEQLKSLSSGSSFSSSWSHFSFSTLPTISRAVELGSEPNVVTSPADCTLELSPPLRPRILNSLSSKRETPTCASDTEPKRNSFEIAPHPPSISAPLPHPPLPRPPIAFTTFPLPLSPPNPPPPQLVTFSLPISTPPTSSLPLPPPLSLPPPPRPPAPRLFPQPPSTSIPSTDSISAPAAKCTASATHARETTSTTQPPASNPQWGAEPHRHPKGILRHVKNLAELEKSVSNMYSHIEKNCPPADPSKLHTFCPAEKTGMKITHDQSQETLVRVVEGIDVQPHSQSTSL
B2: in the assay with 39G7, the Kd came to 200 pM and the koff is 2e-05 s⁻¹. Moreover, in the assay with 8D1, binding was put at a Kd of 50 pM and the koff worked out at 3e-05 s⁻¹.
